Assay results: the supplement of paper PMC9233669
This sample holds only a part of the variants without activity.

Assays:
biotinyl-Val-oxazolone = assay: self-aminoacylation, catalytic enhancement (BVO) (fold over background); higher = more active; k-Seq, kA / k0A0; sequences stand for … in GGGAAUGGAUCCACAUCUACGAAUUC…UUCACUGCAGACUUGACGAAGCUG
In short: (§1)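 Each biotinyl-aminoacyl-oxazolone, at 2–1250 μM, was incubated with mutagenized RNA pools (0.43 μM) carrying a 21-nt variable region. The 50 μL reactions contained HEPES/NaCl/KCl/MgCl2/CaCl2 buffer with 5% acetonitrile at pH 6.9–7.0 and ran for 90 minutes at room temperature. After streptavidin capture, RNA was measured by qPCR in triplicate and by Illumina sequencing, and catalytic enhancement was calculated as median kA over the uncatalyzed rate from a pseudo-first-order fit of per-sequence fraction reacted.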

biotinyl-Trp-oxazolone = assay: self-aminoacylation, catalytic enhancement (BWO) (fold over background); higher = more active; k-Seq, kA / k0A0; sequences stand for … in GGGAAUGGAUCCACAUCUACGAAUUC…UUCACUGCAGACUUGACGAAGCUG
In short: as §1

biotinyl-Ile-oxazolone = assay: self-aminoacylation, catalytic enhancement (BIO) (fold over background); higher = more active; k-Seq, kA / k0A0; sequences stand for … in GGGAAUGGAUCCACAUCUACGAAUUC…UUCACUGCAGACUUGACGAAGCUG
In short: as §1

biotinyl-Phe-oxazolone = assay: self-aminoacylation, catalytic enhancement (BFO) (fold over background); higher = more active; k-Seq, kA / k0A0; sequences stand for … in GGGAAUGGAUCCACAUCUACGAAUUC…UUCACUGCAGACUUGACGAAGCUG
In short: as §1

biotinyl-Leu-oxazolone = assay: self-aminoacylation, catalytic enhancement (BLO) (fold over background); higher = more active; k-Seq, kA / k0A0; sequences stand for … in GGGAAUGGAUCCACAUCUACGAAUUC…UUCACUGCAGACUUGACGAAGCUG
In short: as §1

biotinyl-Met-oxazolone = assay: self-aminoacylation, catalytic enhancement (BMO) (fold over background); higher = more active; k-Seq, kA / k0A0; sequences stand for … in GGGAAUGGAUCCACAUCUACGAAUUC…UUCACUGCAGACUUGACGAAGCUG
In short: as §1

Row | Sequence | self-aminoacylation (biotinyl-Val-oxazolone) | self-aminoacylation (biotinyl-Trp-oxazolone) | self-aminoacylation (biotinyl-Ile-oxazolone) | self-aminoacylation (biotinyl-Phe-oxazolone) | self-aminoacylation (biotinyl-Leu-oxazolone) | self-aminoacylation (biotinyl-Met-oxazolone)
1 | AUUGACCUAGGUCAUCGGUUG [Fam2.2 aminoacylation ribozyme variant] | 1.29 | 1.65 | 1.34 | 3.99 | 1.41 | 1.08
2 | AUUGACCUAGGUCAUGGGGUG [Fam2.2 aminoacylation ribozyme variant] | 2.9 | 3.74 | 3.08 | 17 | 3.32 | 2.92
3 | AUUGACCUAGGUCGUCGGGUG [Fam2.2 aminoacylation ribozyme variant] | 1.81 | 2.2 | 1.78 | 10.2 | 1.6 | 1.44
4 | AUUGACCUAGGUUAUCGGGUG [Fam2.2 aminoacylation ribozyme variant] | 4.7 | 6.6 | 4.71 | 29.1 | 5.36 | 4.96
5 | AUUGACCUCGGUCAUCGGGUG [Fam2.2 aminoacylation ribozyme variant] | 3.69 | 3.78 | 3.05 | 20.3 | 4.55 | 4.12
6 | AUUGCCAUGGUCAUCGAGUGA [Fam2.1 aminoacylation ribozyme variant] | 4.81 | 11.6 | 4.75 | 53.5 | 10.1 | 9.29
7 | AUUGCCCGGGUCAUCGAGUGA [Fam2.1 aminoacylation ribozyme variant] | 3.8 | 6.49 | 3.01 | 45.4 | 7.35 | 6.39
8 | AUUGCCCUAGUCAUCGAGUGA [Fam2.1 aminoacylation ribozyme variant] | 3.21 | 6.87 | 2.73 | 23.6 | 4.97 | 5.83
9 | AUUGCCCUCGUCAUCGAGUGA [Fam2.1 aminoacylation ribozyme variant] | 2.08 | 3.9 | 2.21 | 17.4 | 3.58 | 3.34
10 | AUUGCCCUGGUCACCGAGUGA [Fam2.1 aminoacylation ribozyme variant] | 4.68 | 9.72 | 3.77 | 70 | 10.8 | 9.41
11 | AUUGCCCUGGUCAUAGAGUGA [Fam2.1 aminoacylation ribozyme variant] | 4.65 | 10.9 | 4.05 | 57.9 | 8.58 | 9.01
12 | AUUGCCCUGGUCAUCCAGUGA [Fam2.1 aminoacylation ribozyme variant] | 4.02 | 7.66 | 3.7 | 44.4 | 7.38 | 6.42
13 | AUUGCCCUGGUCAUCGAGUGA [Fam2.1 aminoacylation ribozyme variant] | 23.7 | 60 | 20.6 | 367 | 51.2 | 53.1
14 | AUUGCCCUGGUCAUCGAGUUA [Fam2.1 aminoacylation ribozyme variant] | 2.64 | 4.44 | 2.31 | 8.37 | 5.24 | 4.84
15 | AUUGCCCUGGUCAUCUAGUGA [Fam2.1 aminoacylation ribozyme variant] | 4.24 | 10.3 | 3.81 | 70.6 | 8.79 | 8.83
16 | AUUGCCCUGGUCAUUGAGUGA [Fam2.1 aminoacylation ribozyme variant] | 4.2 | 9.51 | 3.72 | 64.3 | 7.3 | 8.44
17 | AUUGCCCUGGUUAUCGAGUGA [Fam2.1 aminoacylation ribozyme variant] | 4.17 | 10.7 | 4.09 | 58.7 | 9.13 | 8.87
18 | AUUGCCUUGGUCAUCGAGUGA [Fam2.1 aminoacylation ribozyme variant] | 4.83 | 8.73 | 4.46 | 48.9 | 8.79 | 8.02
19 | AUUGCUCUGGUCAUCGAGUGA [Fam2.1 aminoacylation ribozyme variant] | 3.3 | 6.59 | 3.33 | 6.13 | 5.71 | 6.02
20 | AUUGGCCUAGGUCAUCGGGUG [Fam2.2 aminoacylation ribozyme variant] | 14.9 | 27.4 | 18.3 | 277 | 48 | 36.9
21 | AUUUACCUAAGUCAUCGGGUG [Fam2.2 aminoacylation ribozyme variant] | 4.66 | 7.89 | 4.85 | 64.2 | 11.1 | 7.89
22 | AUUUACCUAGAUCAUCGGGUG [Fam2.2 aminoacylation ribozyme variant] | 1.88 | 3.38 | 2.17 | 12.3 | 3 | 2.35
23 | AUUUACCUAGGGCAUCGGGUG [Fam2.2 aminoacylation ribozyme variant] | 3.12 | 3.7 | 2.92 | 16.7 | 3.47 | 3.65
24 | AUUUACCUAGGUAAUCGGGUG [Fam2.2 aminoacylation ribozyme variant] | 1.78 | 2.92 | 1.85 | 17.3 | 3.42 | 2.75
25 | AUUUACCUAGGUCACCGGGUG [Fam2.2 aminoacylation ribozyme variant] | 3.08 | 3.83 | 3.61 | 26.5 | 6.09 | 4.23
26 | AUUUACCUAGGUCAUCGGGUA [Fam2.2 aminoacylation ribozyme variant] | 12.3 | 22.2 | 14.1 | 218 | 39.9 | 29.5

Row | Sequence | self-aminoacylation (biotinyl-Val-oxazolone) | self-aminoacylation (biotinyl-Trp-oxazolone) | self-aminoacylation (biotinyl-Ile-oxazolone) | self-aminoacylation (biotinyl-Phe-oxazolone) | self-aminoacylation (biotinyl-Leu-oxazolone) | self-aminoacylation (biotinyl-Met-oxazolone)
27 | AUUUACCUAGGUGAUCGGGUG [Fam2.2 aminoacylation ribozyme variant] | 2.45 | 2.89 | 2.46 | 15 | 3.24 | 2.64
28 | AUUUCACUGGUCAUCGAGUGA [Fam2.1 aminoacylation ribozyme variant] | 2.85 | 6.42 | 2.99 | 19.9 | 4.92 | 4.7
29 | AUUUCCCCGGUCAUCGAGUGA [Fam2.1 aminoacylation ribozyme variant] | 3.65 | 8.04 | 3.34 | 32.5 | 5.8 | 5.69
30 | AUUUCCCUGGUCAACGAGUGA [Fam2.1 aminoacylation ribozyme variant] | 3.91 | 8.23 | 3.9 | 42.4 | 6.99 | 6.93
31 | AUUUCCCUGGUCAUAGAGUGA [Fam2.1 aminoacylation ribozyme variant] | 4.88 | 12.2 | 4.67 | 61.5 | 9.78 | 9.7
32 | AUUUCCCUGGUCAUCGAGUAA [Fam2.1 aminoacylation ribozyme variant] | 1.83 | 2.37 | 1.56 | 3.9 | 2.52 | 2.39
33 | AUUUCCCUGGUCAUCGAGUGA [Fam2.1 aminoacylation ribozyme variant] | 8.47 | 16.5 | 7.41 | 27.4 | 14.3 | 14.3
34 | AUUUCCCUGGUCAUUGAGUGA [Fam2.1 aminoacylation ribozyme variant] | 4.4 | 10 | 4.47 | 63.1 | 8.38 | 8.36
35 | AUUUCCCUGGUCGUCGAGUGA [Fam2.1 aminoacylation ribozyme variant] | 1.08 | 1.55 | 1.06 | 4.18 | 1.21 | 1.12
36 | AUUUCCCUGGUCUUCGAGUGA [Fam2.1 aminoacylation ribozyme variant] | 4.6 | 9.21 | 4.33 | 47.9 | 7.28 | 6.94
37 | AUUUCCCUUGUCAUCGAGUGA [Fam2.1 aminoacylation ribozyme variant] | 4.17 | 8.99 | 3.62 | 46 | 7.73 | 7.14
38 | AUUUCUCUGGUCAUCGAGUGA [Fam2.1 aminoacylation ribozyme variant] | 3.2 | 7.1 | 3.1 | 20.5 | 5.82 | 5.74
39 | AUUUUCCUAGGUCAUCGGGUG [Fam2.2 aminoacylation ribozyme variant] | 4.16 | 6.89 | 4.64 | 30.9 | 9.58 | 6.79
40 | CAACACUUCAAGCAAGCGGUC [Fam1B.1 aminoacylation ribozyme variant] | 0.953 | 0.593 | 1.1 | 0.831 | 1.25 | 1.24
41 | CAACACUUCAAGCAAUCAGUC [Fam1B.1 aminoacylation ribozyme variant] | 0.772 | 4.78 | 0.858 | 14.5 | 0.923 | 0.716
42 | CAACACUUCAAGCAAUCGCUC [Fam1B.1 aminoacylation ribozyme variant] | 1.57 | 1.54 | 1.85 | 0.965 | 2.04 | 1.19
43 | CAACACUUCAAGCCAUCGGUC [Fam1B.1 aminoacylation ribozyme variant] | 1.48 | 1.24 | 1.35 | 1.04 | 1.74 | 1.35
44 | CAACACUUCAAGCGAUCGGUC [Fam1B.1 aminoacylation ribozyme variant] | 1.25 | 1.81 | 1.27 | 1.94 | 1.55 | 1.29
45 | CAACACUUGAAGCAAUCGGUC [Fam1B.1 aminoacylation ribozyme variant] | 0.828 | 0.696 | 0.911 | 0.601 | 0.842 | 0.731
46 | CAACACUUUAAGCAAUCGGUC [Fam1B.1 aminoacylation ribozyme variant] | 0.846 | 0.886 | 0.96 | 1.03 | 0.854 | 0.762
47 | CAACAGUUCAAGCAAUCGGUC [Fam1B.1 aminoacylation ribozyme variant] | 1.15 | 3.42 | 1.22 | 4.54 | 1.38 | 1.28
48 | CAACUUCAAAAAAUCGGUCUG [Fam1A.1 aminoacylation ribozyme variant] | 1.31 | 11.9 | 1.7 | 14.8 | 1.46 | 1.15
49 | CAACUUCAAACAACCGGUCUG [Fam1A.1 aminoacylation ribozyme variant] | 1.32 | 1.75 | 1.24 | 3.54 | 1.14 | 1.11
50 | CAACUUCAAACAAGCGGUCUG [Fam1A.1 aminoacylation ribozyme variant] | 1 | 1.3 | 1.42 | 1.19 | 1.12 | 1.24
51 | CAACUUCAAACAAUCGGUAUG [Fam1A.1 aminoacylation ribozyme variant] | 1.04 | 21 | 1.21 | 33.3 | 1.61 | 1.31
